Experimental data reported in patent publication EP4671273A1 (Anaveon AG, dated 2025).
Positions count from the first letter of the chain named. Where two headings read alike, the source gives them in different places.

B1: QGA408 (antibody, human IgG1, V domains shown)
VH: VQLVQSGAEVKKPGASVKVSCKASGYTFTNFYIHWVRQAPGQGLEWMGSIYPNYGITAFNQKFKDRVTMTVDTSTSTAYMELRSLRSDDTAVYYCARGYSYAMDYWGQGTTVTVSS
VL: DIQMTQSPSSVSASVGDRVTITCSASQGISGDLNWYQQKPGKAPKLLIYHTSQLHSDVPSRFSGSGSGTDFTLTISSLQPEDFATYYCQGYSKDLLTFGGGTKLEIK
notes: human IgG1
B2: RZL961 (antibody, human IgG1, V domains shown)
VH: B1 VH with N53Q, F59Y
VL: B1 VL
notes: human IgG1
B3: ZTD928 (antibody, human IgG1, V domains shown)
VH: B1 VH with F59Y
VL: B1 VL with L95T
notes: human IgG1
B4: YCF391 (antibody, human IgG1, V domains shown)
VH: B1 VH with I50T, F59Y
VL: B1 VL
notes: human IgG1
B5: WAZ460 (antibody, human IgG1, V domains shown)
VH: B1 VH with F59Y
VL: B1 VL with S24R
notes: human IgG1
B6: 21A08Ap1 (antibody, human IgG1, V domains shown)
VH: EVQLLESGGGLVQPGGSLRLSCAASGFTFSINAMTWVRQAPGKGLEWVSTISGSGFSTYYADSLKGRFTISRDNSKNTLYLQMNSLRAEDTAVYYCAKEVYGDYWGQGTLVTVSS
VL: RSVLTQPPSASGTPGQRVSISCSGASSNIGSQSVFWYQQLPGTAPKLLIYSNNQRPSGVPDRFSGSKSGTSASLAISGLRSEDEADYYCAAWDDSLSIWVFGGGTKLTVL
notes: human IgG1; also called anti-PD-1 antibody clone 21A08Ap1
B7: GDY271 (antibody, human IgG1, V domains shown)
VH: B6 VH
VL: B6 VL with F35Y
notes: human IgG1
B8: FHX509 (antibody, human IgG1, V domains shown)
VH: B6 VH
VL: B6 VL with I98A
notes: human IgG1
B9: SSR010 (antibody, human IgG1, V domains shown)
VH: B6 VH
VL: B6 VL with I29V
notes: human IgG1
B10: JZW468 (antibody, human IgG1, V domains shown)
VH: B6 VH
VL: B6 VL with S95Q
notes: human IgG1
B11: KOW427 (antibody, human IgG1, V domains shown)
VH: B6 VH
VL: B6 VL with L48G
notes: human IgG1
B12: KYC847 (antibody, human IgG1, V domains shown)
VH: B6 VH
VL: B6 VL with S97T
notes: human IgG1
B13: JOH712 (antibody, human IgG1, V domains shown)
VH: B6 VH
VL: B6 VL with L40H
notes: human IgG1
B14: NWL270 (antibody, human IgG1, V domains shown)
VH: B6 VH
VL: B6 VL with I98N
notes: human IgG1
B15: KWH245 (antibody, human IgG1, V domains shown)
VH: B6 VH
VL: B6 VL with W36T
notes: human IgG1
B16: GZZ692 (antibody, human IgG1, V domains shown)
VH: B6 VH
VL: B6 VL with I49G
notes: human IgG1
B17: ZAP122 Fab (Fab, V domains shown)
VH: QVQLQESGPGLVKPSETLSLTCTVSGGSISSDFWGWIRQPPGKGLEWIGYISSRGSTNYNPSLKRRVTISVDTSRNQFSLKLSSVTAADTAVYYCARSAGVTDFDFWGQGTLVTVSS
VL: DIQMTQSPSSVSASVGDRVTITCRASQGISSWLAWYQHKPGKAPKLLIYVASSLQSGVPSRFSGSGSGTDFTLTISSLQPEDFATYYCQQANSFPLTFGGGTKVEIK
notes: Fab; also called ZAP122 wt
B18: MEK904 Fab (Fab, V domains shown)
VH: B17 VH with F33Y, S53Y, R65S, T102A
VL: B17 VL with M4L, N92S
notes: Fab
B19: JSQ278 Fab (Fab, V domains shown)
VH: B17 VH with F33Y, S53Y, R65S, F106A
VL: B17 VL with M4L, N92S
notes: Fab
B20: EJT070 Fab (Fab, V domains shown)
VH: B17 VH with F33Y, S53Y, R54S, R65S, T102A
VL: B17 VL with M4L, N92S
notes: Fab
B21: UER756 Fab (Fab, V domains shown)
VH: B17 VH with F33Y, R54S, R65S, F106A
VL: B17 VL with M4L, N92S
notes: Fab
B22: IOO459 Fab (Fab, V domains shown)
VH: B17 VH with F33Y, T102A
VL: B17 VL with F94A
notes: Fab
B23: VPH777 Fab (Fab, V domains shown)
VH: B17 VH with F33Y, R54S, R65S, T102A
VL: B17 VL with M4L, N92S
notes: Fab
B24: ZXI489 Fab (Fab, V domains shown)
VH: B17 VH with F33Y, S53Y, R65S, F106W
VL: B17 VL with M4L, N92S, F94A
notes: Fab
B25: PAI969 Fab (Fab, V domains shown)
VH: B17 VH with F33Y, R54S, R65S, T102A, F106A
VL: B17 VL with M4L, N92S
notes: Fab
B26: OWS965 Fab (Fab, V domains shown)
VH: B17 VH with F33Y, S53Y, R54S, R65S, T102A, F106A
VL: B17 VL with M4L, N92S
notes: Fab
B27: CLJ397 Fab (Fab, V domains shown)
VH: B17 VH with F33Y, S53Y, R65S, T102A, F106A
VL: B17 VL with M4L, N92S
notes: Fab
B28: RPD212 Fab (Fab, V domains shown)
VH: B17 VH with F33Y, S53Y, R54S, R65S, F106A
VL: B17 VL with M4L, N92S
notes: Fab
B29: IFQ920 Fab (Fab, V domains shown)
VH: B17 VH with T102A
VL: B17 VL with F94A
notes: Fab

Columns and labels:
[1] = target: T1, human PD-1 (#PD1-H82E4, AcroBiosystems) (human, UniProt Q15116 25-167); assay: SPR, PD-1 on captured IgG1
T1 construct: bought
T1 sequence (Q15116 25-167 limits assumed): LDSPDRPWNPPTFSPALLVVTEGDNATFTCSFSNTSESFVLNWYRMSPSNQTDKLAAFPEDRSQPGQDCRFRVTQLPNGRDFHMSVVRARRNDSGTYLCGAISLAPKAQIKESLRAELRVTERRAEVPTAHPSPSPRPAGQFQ

[2] = target: T2, cynomolgus PD-1 (#PD1-C52H5, AcroBiosystems) (cynomolgus monkey, UniProt B0LAJ3 25-170); assay: SPR, PD-1 on captured IgG1
T2 construct: bought; also called cynomolgus monkey PD-1; not shown: the vendor's tag on the recombinant protein (AcroBiosystems #PD1-C52H5)
T2 sequence (B0LAJ3 entry or part of it limits assumed, form in doubt): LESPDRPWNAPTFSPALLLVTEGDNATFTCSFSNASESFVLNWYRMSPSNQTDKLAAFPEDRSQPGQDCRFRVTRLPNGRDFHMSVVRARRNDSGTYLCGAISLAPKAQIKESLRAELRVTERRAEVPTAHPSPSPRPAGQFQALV

[3] = target: T1, human PD-1 (#PD1-H82E4, AcroBiosystems); assay: SPR, PD-1 on captured IgG1; remark: listed apart in the source
[4] = target: T2, cynomolgus PD-1 (#PD1-C52H5, …); assay: SPR, PD-1 on captured IgG1; remark: listed apart in the source
[5] = target: T3, Recombinant hIL-21-Fc (AcroBiosystems) (human, UniProt Q9HBE4 30-162); assay: SPR, Fab on captured rhIL-21-Fc
T3 construct: bought; also called rhIL-21; not shown: Fc of the bought reagent, not described
T3 sequence (Q9HBE4 30-162): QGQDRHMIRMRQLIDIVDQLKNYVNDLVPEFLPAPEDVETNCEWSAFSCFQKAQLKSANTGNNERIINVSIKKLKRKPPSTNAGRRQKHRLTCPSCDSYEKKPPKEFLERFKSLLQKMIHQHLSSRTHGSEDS

[6] = target: T4, rhIL-21-His (AB235875-1001, Abcam) (human, UniProt Q9HBE4 30-162); assay: SPR, Fab on captured rhIL-21-His
T4 construct: bought; not shown: His tag, length and position not described
T4 sequence (Q9HBE4 30-162 limits assumed): as the sequence (Q9HBE4 30-162) above

| Binder | Kd [3] [nM] | koff [3] [s⁻¹] | kon [3] [M⁻¹ s⁻¹] | Kd [4] [nM] | koff [4] [s⁻¹] | kon [4] [M⁻¹ s⁻¹] | Kd [6] [nM] | koff [6] [s⁻¹] | kon [6] [M⁻¹ s⁻¹] | other results |
| --- | --- | --- | --- | --- | --- | --- | --- | --- | --- | --- |
| B1 |  |  |  |  |  |  |  |  |  | Kd [1]: 0.48 nM; koff [1]: 0.000208 s⁻¹; kon [1]: 434000 M⁻¹ s⁻¹; Kd [2]: 0.328 nM; koff [2]: 0.000182 s⁻¹; kon [2]: 555000 M⁻¹ s⁻¹ |
| B2 |  |  |  |  |  |  |  |  |  | Kd [1]: 1.21 nM; koff [1]: 0.000536 s⁻¹; kon [1]: 444000 M⁻¹ s⁻¹; Kd [2]: 0.785 nM; koff [2]: 0.000436 s⁻¹; kon [2]: 555000 M⁻¹ s⁻¹ |
| B3 |  |  |  |  |  |  |  |  |  | Kd [1]: 0.801 nM; koff [1]: 0.00028 s⁻¹; kon [1]: 349000 M⁻¹ s⁻¹; Kd [2]: 0.502 nM; koff [2]: 0.000243 s⁻¹; kon [2]: 483000 M⁻¹ s⁻¹ |
| B4 |  |  |  |  |  |  |  |  |  | Kd [1]: 0.808 nM; koff [1]: 0.000336 s⁻¹; kon [1]: 416000 M⁻¹ s⁻¹; Kd [2]: 0.664 nM; koff [2]: 0.00026 s⁻¹; kon [2]: 391000 M⁻¹ s⁻¹ |
| B5 |  |  |  |  |  |  |  |  |  | Kd [1]: 0.515 nM; koff [1]: 0.000202 s⁻¹; kon [1]: 393000 M⁻¹ s⁻¹; Kd [2]: 0.331 nM; koff [2]: 0.00016 s⁻¹; kon [2]: 485000 M⁻¹ s⁻¹ |
| B6 | 1.27 | 0.00011 | 86800 | 1.25 | 0.000259 | 206000 |  |  |  |  |
| B7 | 3.56 | 0.0013 | 364000 | 6.38 | 12.2 | 1.91e+09 |  |  |  |  |
| B8 | 0.694 | 8.38e-05 | 121000 | 0.699 | 0.000239 | 341000 |  |  |  |  |
| B9 | 0.0767 | 0.000199 | 2.6e+06 | 1.14 | 0.000301 | 263000 |  |  |  |  |
| B10 | 0.631 | 9.2e-05 | 146000 | 0.959 | 0.00029 | 302000 |  |  |  |  |
| B11 | 0.586 | 7.97e-05 | 136000 | 1.27 | 0.000296 | 233000 |  |  |  |  |
| B12 | 0.528 | 7.59e-05 | 144000 | 0.597 | 0.000139 | 233000 |  |  |  |  |
| B13 | 0.546 | 8.88e-05 | 163000 | 1.11 | 0.000252 | 227000 |  |  |  |  |
| B14 | 0.229 | 9.82e-05 | 429000 | 0.949 | 0.00015 | 158000 |  |  |  |  |
| B15 | 0.183 | 0.000305 | 1.67e+06 | 2.29 | 0.000644 | 281000 |  |  |  |  |
| B16 | 1.41 | 0.000209 | 148000 | 4.5 | 0.00153 | 340000 |  |  |  |  |
| B17 |  |  |  |  |  |  | 0.313 | 6.91e-05 | 221000 | Kd [5]: < 0.0265 nM; koff [5]: < 1e-05 s⁻¹; kon [5]: 377000 M⁻¹ s⁻¹ |
| B18 |  |  |  |  |  |  | 0.69 | 0.00015 | 210000 |  |
| B19 |  |  |  |  |  |  | 0.56 | 0.00015 | 270000 |  |
| B20 |  |  |  |  |  |  | 0.82 | 0.0002 | 250000 |  |
| B21 |  |  |  |  |  |  | 0.81 | 0.00011 | 140000 |  |
| B22 |  |  |  |  |  |  | 15.6 | 0.0222 | 1.42e+06 |  |
| B23 |  |  |  |  |  |  | 0.73 | 0.0001 | 140000 |  |
| B24 |  |  |  |  |  |  | 7.04 | 0.00484 | 688000 |  |
| B25 |  |  |  |  |  |  | 0.98 | 0.00014 | 140000 |  |
| B26 |  |  |  |  |  |  | 2 | 0.00017 | 87000 |  |
| B27 |  |  |  |  |  |  | 0.55 | 0.00015 | 270000 |  |
| B28 |  |  |  |  |  |  | 1.1 | 0.00015 | 130000 |  |
| B29 |  |  |  |  |  |  | 8.28 | 0.00233 | 281000 |  |
